# Source: patent US10280205B2, “Method for treating cancer with an activated T lymphocyte that selectively recognizes a cancer cell consisting of specific peptide” (immatics biotechnologies GmbH, priority 2015, dated 2019)
# Biological target: HLA-A*02:01 (Homo sapiens, UniProt P04439, D140Y/D185E/D98H/E176V/E277Q/G131W/G231S/I119V/I121R/I166T/I218V/L300P/L318F/N151K/N90K/P208A/P217A/Q86G/Q94H/R138H/R169H/T345S)
# Assay: MHC binding assay: UV-ligand exchange with beta2m ELISA (exchange yield)
# Conditions: binding to HLA-A*02:01, β2m ELISA
# How it was run: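 Peptide–HLA-A*02:01 complexes formed by UV-induced exchange of a photocleavable ligand for the test peptide. Exchange products diluted 100-fold and captured on streptavidin-coated plates. Stabilized complexes detected with HRP anti-β2m (1 h, 37° C.) and TMB, A450; exchange yield reported.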
row,Substance,"Peptide exchange (MHC class I binding score, peptide exchange yield)"
1,183 (FGLDLVTEL; listed as Homo sapiens) [compound 183],“+++” (≥50 = +++)
2,184 (YLMDINGKMWL; listed as Homo sapiens) [compound 184],“+++” (≥50 = +++)
3,185 (FLIDDKGYTL; listed as Homo sapiens) [compound 185],“++” (≥20% = ++)
4,186 (TLFFQQNAL; listed as Homo sapiens) [compound 186],“++” (≥20% = ++)
5,187 (RQISIRGIVGV; listed as Homo sapiens) [compound 187],“+++” (≥50 = +++)
6,188 (GLFPVTPEAV; listed as Homo sapiens) [compound 188],“+++” (≥50 = +++)
7,189 (ALQRKLPYV; listed as Homo sapiens) [compound 189],“+++” (≥50 = +++)
8,190 (FLSSLTETI; listed as Homo sapiens) [compound 190],“+++” (≥50 = +++)
9,191 (LLQEGQALEYV; listed as Homo sapiens) [compound 191],“++” (≥20% = ++)
10,192 (KMLDGASFTL; listed as Homo sapiens) [compound 192],“+++” (≥50 = +++)
11,193 (QLLDADGFLNV; listed as Homo sapiens) [compound 193],“+++” (≥50 = +++)
12,194 (ALPLFVITV; listed as Homo sapiens) [compound 194],“+++” (≥50 = +++)
13,195 (GLFADLLPRL; listed as Homo sapiens) [compound 195],“+++” (≥50 = +++)
14,196 (YLYSVEIKL; listed as Homo sapiens) [compound 196],“++++” (≥75% = ++++)
15,197 (ALGPEGGRV; listed as Homo sapiens) [compound 197],“++” (≥20% = ++)
16,198 (KTINKVPTV; listed as Homo sapiens) [compound 198],“+++” (≥50 = +++)
17,200 (LLFGSVQEV; listed as Homo sapiens) [compound 200],“+++” (≥50 = +++)
18,201 (RLVDYLEGI; listed as Homo sapiens) [compound 201],“+++” (≥50 = +++)
19,202 (ALLDQQGSRWTL; listed as Homo sapiens) [compound 202],“+++” (≥50 = +++)
20,204 (KIAENVEEV; listed as Homo sapiens) [compound 204],“++” (≥20% = ++)
21,205 (SLYPGTETMGL; listed as Homo sapiens) [compound 205],“+++” (≥50 = +++)

row,Substance,"Peptide exchange (MHC class I binding score, peptide exchange yield)"
1,206 (VLQEGKLQKLAQL; listed as Homo sapiens) [compound 206],“+++” (≥50 = +++)
2,207 (GLTSTNAEV; listed as Homo sapiens) [compound 207],“++” (≥20% = ++)
3,208 (KISPVTFSV; listed as Homo sapiens) [compound 208],“+++” (≥50 = +++)
4,209 (KLIESKHEV; listed as Homo sapiens) [compound 209],“++” (≥20% = ++)
5,210 (LLLNAVLTV; listed as Homo sapiens) [compound 210],“++” (≥20% = ++)
6,211 (LLWPGAALL; listed as Homo sapiens) [compound 211],“++” (≥20% = ++)
7,212 (ALWDQDNLSV; listed as Homo sapiens) [compound 212],“++” (≥20% = ++)
8,214 (FLLDLDPLLL; listed as Homo sapiens) [compound 214],“+++” (≥50 = +++)
9,215 (QLINHLHAV; listed as Homo sapiens) [compound 215],“+++” (≥50 = +++)
10,216 (NLWEDPYYL; listed as Homo sapiens) [compound 216],“+++” (≥50 = +++)
11,217 (ALIHPVSTV; listed as Homo sapiens) [compound 217],“++” (≥20% = ++)
12,218 (SALEELVNV; listed as Homo sapiens) [compound 218],“++” (≥20% = ++)
13,219 (KLSDIGITV; listed as Homo sapiens) [compound 219],“+++” (≥50 = +++)
14,220 (LLQKFVPEI; listed as Homo sapiens) [compound 220],“++” (≥20% = ++)
15,221 (ALYEEGLLL; listed as Homo sapiens) [compound 221],“++” (≥20% = ++)
16,222 (NLIENVQRL; listed as Homo sapiens) [compound 222],“++” (≥20% = ++)
17,223 (ALLENIALYL; listed as Homo sapiens) [compound 223],“+++” (≥50 = +++)
18,224 (TLIDAQWVL; listed as Homo sapiens) [compound 224],“+++” (≥50 = +++)
19,225 (SLLKVLPAL; listed as Homo sapiens) [compound 225],“+++” (≥50 = +++)
20,226 (MLYVVPIYL; listed as Homo sapiens) [compound 226],“++” (≥20% = ++)
21,227 (ALMNTLLYL; listed as Homo sapiens) [compound 227],“++” (≥20% = ++)

row,Substance,"Peptide exchange (MHC class I binding score, peptide exchange yield)"
1,228 (AMQEYIAVV; listed as Homo sapiens) [compound 228],“++” (≥20% = ++)
2,229 (RLPGPLGTV; listed as Homo sapiens) [compound 229],“++” (≥20% = ++)
3,230 (ILVDWLVEV; listed as Homo sapiens) [compound 230],“+” (≥10% = +)
4,231 (FLSPQQPPLLL; listed as Homo sapiens) [compound 231],“++” (≥20% = ++)
5,232 (ALLEAQDVELYL; listed as Homo sapiens) [compound 232],“++” (≥20% = ++)
6,233 (VLSETLYEL; listed as Homo sapiens) [compound 233],“++” (≥20% = ++)
7,234 (ALMEDTGRQML; listed as Homo sapiens) [compound 234],“++” (≥20% = ++)
8,235 (YLNDLHEVLL; listed as Homo sapiens) [compound 235],“++++” (≥75% = ++++)
9,236 (GLLEAKVSL; listed as Homo sapiens) [compound 236],“+++” (≥50 = +++)
10,237 (ALLEASGTLLL; listed as Homo sapiens) [compound 237],“++++” (≥75% = ++++)
11,238 (YLISFQTHI; listed as Homo sapiens) [compound 238],“+++” (≥50 = +++)
12,239 (AAFAGKLLSV; listed as Homo sapiens) [compound 239],“+++” (≥50 = +++)
13,240 (ILLEQAFYL; listed as Homo sapiens) [compound 240],“+++” (≥50 = +++)
14,241 (SLVEVNPAYSV; listed as Homo sapiens) [compound 241],“+++” (≥50 = +++)
15,242 (AIAYILQGV; listed as Homo sapiens) [compound 242],“++” (≥20% = ++)
16,243 (LLLNELPSV; listed as Homo sapiens) [compound 243],“+++” (≥50 = +++)
17,244 (SLFGGTEITI; listed as Homo sapiens) [compound 244],“+++” (≥50 = +++)
18,245 (SMIDDLLGV; listed as Homo sapiens) [compound 245],“+++” (≥50 = +++)
19,246 (LLWEVVSQL; listed as Homo sapiens) [compound 246],“+++” (≥50 = +++)
